Blank lines part the entries; values can stand above or below the sequence they belong to.
Columns and labels:
HLA-B*51:01 = test: IEDB peptide-MHC binding, purified MHC/direct/fluorescence; filed as Kd, often an IC50 or EC50 that approximates it; ≥ and ≤ were set here for values at or beyond the usual limits of such assays; settings: source organism: Homo sapiens
HLA-C*05:01 = test: as above; settings: source organism: Homo sapiens
HLA-C*07:02 = test: as above; settings: source organism: Homo sapiens
HLA-A*32:07 = test: IEDB peptide-MHC binding, purified MHC/competitive/fluorescence; filed as Kd, often an IC50 or EC50 that approximates it; ≥ and ≤ were set here for values at or beyond the usual limits of such assays; settings: source organism: Homo sapiens
HLA-A*32:15 = test: as above; settings: source organism: Homo sapiens
HLA-A*68:23 = test: as above; settings: source organism: Homo sapiens
HLA-B*15:42 = test: as above; settings: source organism: Homo sapiens
HLA-B*40:13 = test: as above; settings: source organism: Homo sapiens
HLA-B*45:06 = test: as above; settings: source organism: Homo sapiens
HLA-B*83:01 = test: as above; settings: source organism: Homo sapiens
HLA-C*06:02 [1] = test: as above; settings: source organism: Homo sapiens
HLA-A*01:01 = test: IEDB peptide-MHC binding, purified MHC/direct/fluorescence; filed as Kd, often an IC50 or EC50 that approximates it; ≥ and ≤ were set here for values at or beyond the usual limits of such assays
HLA-A*02:01 [2] = test: as above; settings: source organism: Giardia lamblia ATCC 50803
HLA-A*03:01 = test: as above; settings: source organism: Giardia lamblia ATCC 50803
HLA-A*11:01 [3] = test: as above; settings: source organism: Giardia lamblia ATCC 50803
HLA-A*26:01 = test: as above
HLA-A*30:01 = test: as above; settings: source organism: Giardia lamblia ATCC 50803
HLA-A*31:01 = test: as above
HLA-A*69:01 = test: as above
HLA-B*07:02 = test: as above
HLA-B*08:01 = test: as above
HLA-B*15:01 [4] = test: as above; settings: source organism: Giardia lamblia ATCC 50803
HLA-B*27:05 = test: as above; settings: source organism: Giardia lamblia ATCC 50803
HLA-B*40:01 = test: as above; settings: source organism: Giardia lamblia ATCC 50803
HLA-B*44:02 = test: as above; settings: source organism: Giardia lamblia ATCC 50803
HLA-B*58:01 = test: as above
HLA-B*73:01 = test: as above; settings: source organism: Giardia lamblia ATCC 50803
HLA-A*24:03 = test: as above
HLA-C*04:01 = test: as above; settings: source organism: Nostoc punctiforme PCC 73102
HLA-A*23:01 = test: as above; settings: source organism: Brucella abortus 2308
HLA-B*08:03 = test: as above; settings: source organism: Brucella suis 1330
HLA-B*15:09 = test: as above; settings: source organism: Brucella suis 1330
HLA-B*39:01 = test: as above; settings: source organism: Brucella suis 1330
HLA-B*57:01 = test: as above; settings: source organism: Brucella abortus 2308
HLA-C*06:02 [5] = test: as above; settings: source organism: Brucella abortus S19
HLA-C*14:02 = test: as above; settings: source organism: Brucella abortus S19
HLA-C*15:02 = test: as above; settings: source organism: Brucella abortus S19
HLA-A*02:01 [6] = test: IEDB peptide-MHC binding, purified MHC/competitive/fluorescence; filed as Kd, often an IC50 or EC50 that approximates it; ≥ and ≤ were set here for values at or beyond the usual limits of such assays; settings: source organism: Brucella abortus S19
HLA-A*02:03 = test: as above; settings: source organism: Brucella abortus S19
HLA-A*02:06 = test: as above; settings: source organism: Brucella abortus S19
HLA-A*11:01 [7] = test: as above; settings: source organism: Brucella abortus S19
HLA-A*26:02 = test: as above; settings: source organism: Brucella abortus S19
HLA-A*68:02 = test: as above; settings: source organism: Brucella abortus S19
HLA-B*15:01 [8] = test: as above; settings: source organism: Brucella abortus S19
HLA-B*15:17 = test: as above; settings: source organism: Brucella abortus S19
HLA-B*18:01 = test: as above; settings: source organism: Brucella abortus S19
[9] = source organism: Giardia lamblia ATCC 50803
[10] = source organism: Brucella abortus 2308
[11] = source organism: Brucella suis 1330

Kd (HLA-B*51:01): 0.168 µM | Kd (HLA-C*05:01): ≥ 20 µM | Kd (HLA-C*07:02): 3.31 µM | Kd (HLA-A*32:07): 0.0047 µM | Kd (HLA-A*32:15): 0.0202 µM | Kd (HLA-A*68:23): 0.0065 µM | Kd (HLA-B*15:42): ≥ 5 µM | Kd (HLA-B*40:13): 0.213 µM | Kd (HLA-B*45:06): ≥ 5 µM | Kd (HLA-B*83:01): 3.6 µM | Kd (HLA-C*06:02 [1]): 1.78 µM
Sequence: MAMGILHTI

Sequence: IRNLVKRYK
Kd (HLA-A*01:01; [9]): ≥ 20 µM | Kd (HLA-A*02:01 [2]): ≥ 20 µM | Kd (HLA-A*03:01): ≥ 20 µM | Kd (HLA-A*11:01 [3]): ≥ 20 µM | Kd (HLA-A*26:01; [9]): ≥ 20 µM | Kd (HLA-A*30:01): 0.0508 µM | Kd (HLA-A*31:01; [9]): ≥ 20 µM | Kd (HLA-A*69:01; [9]): ≥ 20 µM | Kd (HLA-B*07:02; [9]): ≥ 20 µM | Kd (HLA-B*08:01; [9]): ≥ 20 µM | Kd (HLA-B*15:01 [4]): ≥ 20 µM | Kd (HLA-B*27:05): 1.21 µM | Kd (HLA-B*40:01): ≥ 20 µM | Kd (HLA-B*44:02): ≥ 20 µM | Kd (HLA-B*58:01; [9]): ≥ 20 µM | Kd (HLA-B*73:01): 3.5 µM

Sequence: YWPTEGYEF
Kd (HLA-A*24:03; source organism: Escherichia coli O157:H7): ≤ 0.001 µM | Kd (HLA-C*04:01): 0.222 µM

Sequence: YWMGGTTYF
Kd (HLA-A*01:01; [10]): ≥ 20 µM | Kd (HLA-A*23:01): 0.0535 µM | Kd (HLA-A*24:03; [10]): ≤ 0.001 µM | Kd (HLA-A*26:01; [11]): ≥ 20 µM | Kd (HLA-A*31:01; [10]): ≥ 20 µM | Kd (HLA-A*69:01; [10]): ≥ 20 µM | Kd (HLA-B*07:02; [10]): ≥ 20 µM | Kd (HLA-B*08:01; [11]): ≥ 20 µM | Kd (HLA-B*08:03): ≥ 20 µM | Kd (HLA-B*15:09): ≥ 20 µM | Kd (HLA-B*39:01): ≥ 20 µM | Kd (HLA-B*57:01): ≥ 20 µM | Kd (HLA-B*58:01; [10]): ≥ 20 µM | Kd (HLA-C*06:02 [5]): ≥ 20 µM | Kd (HLA-C*14:02): ≤ 0.001 µM | Kd (HLA-C*15:02): ≥ 20 µM | Kd (HLA-A*02:01 [6]): 1.12 µM | Kd (HLA-A*02:03): 4.23 µM | Kd (HLA-A*02:06): 0.797 µM | Kd (HLA-A*11:01 [7]): 2.07 µM | Kd (HLA-A*26:02): ≥ 20 µM | Kd (HLA-A*68:02): ≥ 20 µM | Kd (HLA-B*15:01 [8]): 1.04 µM | Kd (HLA-B*15:17): 1.02 µM | Kd (HLA-B*18:01): ≥ 20 µM
